From CN117327176A (NANJING RONGJIEKANG BIOTECHNOLOGY CO LTD, dated 2024)
Changes are numbered by the printed parent chain.

B1: 单域抗体 1F3 (VHH, E. coli crude extract) (VHH)
VHH: ESGGGSVQAGGSLRLSCATSTSRFTYGSACMGWFRQSPGKEREQVAGIAMGVVTYYADSVKGRFTISQDNGKNTVDLQMDNLKPEDTAMYYCAAGPAHYNCYSASGGRYNYWGQGTQVTVSS
notes: Expressed from pMECS in E. coli and detected through an HA tag
B2: 单域抗体 2H3 (VHH, E. coli crude extract) (VHH)
VHH: B1 VHH with N100K, Y111I
notes: as for B1
B3: 单域抗体 212C7 (VHH, E. coli crude extract) (VHH)
VHH: B1 VHH with S6L, A9P
notes: as for B1
B4: 单域抗体 1F9 (VHH, E. coli crude extract) (VHH)
VHH: ESGGGSVQAGGSLRLSCATSRYTYNCMGWFRQSPGKEREQVAGIAMGVVTYYADSVKGRFTISQDNGKNTVDLQMDNLKPEDTAMYYCAAGPAHYKCYSPSGGRYNYWGQGTQVTVSS
notes: as for B1
B5: 单域抗体 4A1 (VHH, E. coli crude extract) (VHH)
VHH: B4 VHH with A90S, A93P, P100A
notes: as for B1
B6: 单域抗体 1H5 (VHH, E. coli crude extract) (VHH)
VHH: B4 VHH with S6L, A9P
notes: as for B1
B7: 单域抗体 1B7 (VHH, E. coli crude extract) (VHH)
VHH: ESGGGSVQAGGSLRLSCTTSGYTYSSNCIGWFRQAPGKEREEIATISRVGEITFYADSVKGRFTISQDNTETTVFLQMNSLKPEDTAVYYCAASPPTYGGCPTRSRDYDKWGQGTQVTVSS
notes: as for B1
B8: 单域抗体 23G12 (VHH, E. coli crude extract) (VHH)
VHH: ESGGGSVQAGGSLRLSCATSRFTYGSACMGWFRQSPGKEREQVAGIAMGVVTYYADSVKGRFTISQDNGKNTVDLQMDNLKPEDTAMYYCATGPAHYKCYSASGGRYNYWGQGTQVTVSS
notes: as for B1
B9: 单域抗体 4B2 (VHH, E. coli crude extract) (VHH)
VHH: B8 VHH with F22Y, T92A, K98L, N108T, Y109S
notes: as for B1
B10: 单域抗体 21H6 (VHH, E. coli crude extract) (VHH)
VHH: B8 VHH with F22W, S26T, K59E, G69E
notes: as for B1
B11: 单域抗体 214D11 (VHH, E. coli crude extract) (VHH)
VHH: B8 VHH with N108D, Y109A
notes: as for B1
B12: 单域抗体 27H4 (VHH, E. coli crude extract) (VHH)
VHH: B8 VHH with Q34H, S35A, A102P
notes: as for B1
B13: 单域抗体 1A6 (VHH, E. coli crude extract) (VHH)
VHH: B8 VHH with F22Y, A27S, G30A, T92A, A95P, A102V
notes: as for B1
B14: 单域抗体 1D1 (VHH, E. coli crude extract) (VHH)
VHH: B8 VHH with A9V, N108S, Y109D
notes: as for B1
B15: 单域抗体 4F3 (VHH, E. coli crude extract) (VHH)
VHH: B8 VHH with F22Y, A27S, G69N, T92S, A95P
notes: as for B1
B16: 单域抗体 2G5 (VHH, E. coli crude extract) (VHH)
VHH: B8 VHH with K98N
notes: as for B1
B17: 单域抗体 2D10 (VHH, E. coli crude extract) (VHH)
VHH: B8 VHH with E83D
notes: as for B1
B18: 单域抗体 1A7 (VHH, E. coli crude extract) (VHH)
VHH: B8 VHH with S20P, F22Y, S26T, A27S, K38Y, E39Q, T92A
notes: as for B1

The binders below were run against T1, 人源TSLP蛋白 (Thymic stromal lymphopoietin) (human, UniProt Q969D9 29-159) (assay: ELISA of E. coli crude extract on coated TSLP, anti-HA HRP; positive if OD more than 5 times the control well).
T1 construct: also called 人源重组TSLP蛋白; TSLP重组蛋白

Binder | binding result
B1 | binds
B2 | binds
B3 | binds
B4 | binds
B5 | binds
B6 | binds
B7 | binds
B8 | binds
B9 | binds
B10 | binds
B11 | binds
B12 | binds
B13 | binds
B14 | binds
B15 | binds
B16 | binds
B17 | binds
B18 | binds
